# Laboratory results as given in the nanobody polyreactivity screen of Harvey et al. (2022).
# Assay: yeast display, Sf9 membrane polyspecificity reagent, FACS + sequencing; frameworks hold sequencing errors
# Outline: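 A synthetic nanobody library was expressed on Saccharomyces cerevisiae BJ5465 by galactose induction for 36–48 hours. The library was stained for 1 hour at 4 °C with 10% biotinylated, detergent-solubilized Sf9 membrane reagent and enriched with streptavidin microbeads before FACS. Low and high (top ~1%) gates were set on anti-HA fluorescence for expression and streptavidin fluorescence for reagent binding, and each polyreactivity label reflects the gate of origin.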
row,Sequence,polyreactivity (PSR sort gate)
1,QVQLVESGGGLVQAGGSLRLRCAASGYTFKHYTMGWYREAPGKERELVAAISRRGGRTYYADSVKGRFTISRDNAKNTVYLQMNSLKPEDTAVYYCNRVPRARKGDYWGQGTQVTVSS,high polyreactivity
2,QVQLVESGGGLVQAGGSLRLSCAASGSTFPFYAMGWYRQAPGKERELVAAITASVGNTYYADSVKGRFTISRDNAKNTVYLQMNSLKPEDTAVYYCNADEWYTYIPDFDYWGQGTQVTVSS,low polyreactivity
3,QVQLVESGGGLVQAGGSLRLSCAASGYIFLVYAMGRSRHAPRKERELVASITRGTRTYYADSVKGRFTISRDNAKNTVYLQMNILKPEDSAVYYCAASQNIRDWFRFGYGSWGQGTQVTVSS,low polyreactivity
4,QVQLVESGGGLVQAGGSLRLSCAASGSSFSSYAMGWYRQAPGKERELVASISRRGGSTYYADSVKGRFTISRDNAKNTGYLQMNSLNPEDTAVYYCNAPYAGMGYWGQGTQVTVSS,low polyreactivity
5,QVQLVESGGGLVQAGGSLRLSCAASGRIFTRYAMGWYRQAPGKERELVDGITSRGGSTYYADSVKGRYTISRDNAKNTVYLQMNSLKPEDTAVYYCNKRYTGENDYWGQGTQVTVSS,high polyreactivity
6,QVHLVESGGGLVQAGGSLRLSCAASGLIFVKYALGWYRQAPGKEREFVAAITRSGGTTYYADSVKGRFTISRDNAKNTVYLQMNSLKPEDTAVYYCAAGVVIYFFGGGDYWGQGTQVTVSS,low polyreactivity
7,QVQLVESGGGLVQAGGILRLSCAASGSTFAQNAMGWYRQAPGKEREFVAAITGTVGSTYYADSVKGRFTISRDNAKNTVYLQMNSLKPEDTAVFYCNTRGFNGRVYPYDYWGQGTQVTVSS,low polyreactivity
8,QVQLVESGGGLVQAGGSLRLSCAASGSIFVHYAMGWYRQAPGKERELVAAITSSGGRTYYADSVKGRFTISRDNAKNTVYLQMNSLKPEDTAVYYCNAAKYLFRHGFLSAGDMYYWGQGTQVTVSS,high polyreactivity
9,QVQRVESGGGLVQAGGSLRLSCAASGRTFPWNVMGWYRQAPGKERELVAAISWSSGRTYYADSVKGRFTISRDNAKNTVYLQMNSLKPEDTAVYYCAAVYKVHSGLYEYWGQGTQVTVSS,high polyreactivity
10,QVQLVESGGGLVQAGCSLRLSCAASGFTFDQYAMGWYRQAPGKEREFVAGNSYGRGRTYYADSVKGRFTISRDNAKNNFYLQMNSVKPEVTAVYYCAADGVYRYNYPYLYTYDYWGQGTQVTVSS,low polyreactivity
11,QVQLGESGGGLVQAGGSLRLSCAASGSTFPRYVMGWYRQAPGKERELVAAISSSSGRTFYADSVKGRFTISRDNAKNTVYLQMNSLKPEDTAVYYCAARTSFNVHYWGQGTQVTVSS,high polyreactivity
12,QVQLVESGGGLVQAGGSLRLSCAASGITFYGYDMGWYRQAPAKERELVAAITSDGITNYADSVKGRFTISRDNAKNTVYLQMNSLKPEDTAVYYCNAVFRPGSFLYDWRAYDYWGQGTQVTVSS,low polyreactivity
13,QVQLVESGGGLVQAGGSLRLSCAASGFTFTKNTMGWYRQAPGKERELVAAITKSGGRTYYADSVKGRFTISRDNAKNTVYLQMNSLKPEDTAVYYCAADYVRNNYPYGYWGQGTQVTVSS,high polyreactivity
14,QVQLVESGGGLVQAGGSLRLSCAASGLIFQVYDMGWYRQAPGKERELVAAISSGSNTNYADSVKGRFTISRDNAKNTVYLQMNSLKPEDTAVYYCAASWGYGALTPDMGYWGQGTQVTVSS,low polyreactivity
15,QVQLVESGGGLVQAGGSLRLSCAASGFTFPGDAMGWYRQAPGKERELVAAIDTSGGNTYADSVKGRFTISRDNAKNTVYLQMNSLKPEDTAVYYCAADYYYVYSSFGHYYWGQGTQVTVSS,low polyreactivity
16,QVQLVDSGGGLVQAGGSLRLSCAASGSSFYISAMGCYRQAPGKERELVAAITNAGSTKYADSVKGRFTISRDNAKNTVYLQMNSLKPEDTAVYYCAAVTFSYDGYDYWGQGTQVTVSS,low polyreactivity

row,Sequence,polyreactivity (PSR sort gate)
1,QVQLVESGGGLVQAGGSLRLSCAASGSIFDFYAMGWYRQAPGKERESVAAISWSGGSTYADSVKGRFTISRDNAKNTVYLQMNSLKPEDTAVYYCAARWGTYWGVLGGDPDIDYDYWGQGTQVTVSS,low polyreactivity
2,QDQLVESGGGLFQAGGSLRLSCAASGRTFYTYAMGRYRPAPRKERELVAAITSGDGTYYADSVKGRFTISRDNAKNTVYLQMNSLKPEDTAVYYCADTRTYQLYRWAPRYYYWGQGTQVTVSS,high polyreactivity
3,QVQLVESGGGLVQAGGSLRLSCAASGFTFAYYAMGWYRQAPGKERELVAAISSGGGTYYADSVKGRFTISRDNAKNTVYLQMNSLKPEDTAVYYCNAANGRYIGSRYVVYTGFYYWGQGTQVTVSS,high polyreactivity
4,QVQLVESGGGLVQAGGILRLSCAASGSIFSQYAMGWYRQAPGKERELVATISWNGGRTYYADSVKGRFTISRDNAKNTVYLELNSLKPEDTAVYYCAARYGGVPYYYWGQGTQVTVSS,high polyreactivity
5,QFQLVESGGGLVQAGGSLRLSCAASGFTFYRNAMGWYRQAPGKERELVAAITSTGSTNYADSVKGRFTISRDNAKNTVYLQMNSLKPEDTAVYYCNKRRFGRQGMDYWGQGTQVTVSS,low polyreactivity
6,QVQLVESGGGLVQAGGSLRLSCAASGSTFGSYAMGWYRQAPGTERELVAAISRAGSTYADSVKGRFTISRDNAKNTVYLQMHSLKPEDTAVYYCANRDNALYYGYDYWGQGTQVTVSS,low polyreactivity
7,QVQLVDSGGGLVQAGGTHRLSCAASGFTFRRNAMGWYRQAPGKERELVAAITYNGGTSYYADSVKGRFSISRDNAKNTVYLQMNSLKPEETAVYYCAAVDSYSPYVSHDNWGQGTKVTVSS,low polyreactivity
8,QVQLVESGGGLVQAGGSLRLSCAASGRILPRNAMGRYRQAPGKEREVVAGIYSDGSTNYADSVKGRFTISRDNAKNTVYLQMKSLKPEETAVYYCAKQFSSYQYFIILISPGDYWGQGTQVTVSS,low polyreactivity
9,QVQLVESGGGLVQAGGSLRLSCAASGSTFPYNAMGWYRQAPGKERELVAAITSAGGTNYADSVKGRFTISRDNAKNTVYLQMNSLKPEDTAVYYCAADGSGYYDWYYYWGQGTQVTVSS,low polyreactivity
10,QVQLVESGGGLVQAGGSLRLSCAASGSIFPGYAMGWYRQAPGKERELVATIRWSSGSRTNYADSVKGRFTISRDNAKNTVYLQMNSLKPEDTAVYYCAAGSRRYKYDYWGQGTQVTVSS,high polyreactivity
11,QVQLVESGGGLVQAGGSLRLSCAASGNILPSNAMGRYREAPGKEWELVAAITWSVGRTYYADSVKGRFTISRDNAKYTVYLQMNSLKPEDTAVYYCAADDYWDDVYYYVTGSTGYDYWGQGTQVTVSS,low polyreactivity
12,QVQLVESGGGLVQAGGSLRLSCAASGRIFYWYAMAWYRQAPGKERELVAAITSGGSTYYADSVKGRFTISRDNAKNTVYLQMNSLKPEDTAVYYCAADLYYWGDYDYWGQGTQVTVSS,low polyreactivity
13,QVQLVESGGGLVHAGGSLRLTCAASGSISSFYAMGWYRQEPGKERELVAGITSGGSTNYADSVKGRFTISRDNAKNTVYLQMNSLKAEDTAVYYCAAVYKCAGTHFDVFVKEFDYWGQGTQVTVSS,low polyreactivity
14,QVQLVESGGGLVQAGGSLRLSCAASGSTFYANAMGWYRQAPGKERELVAAIDSGGTTTYADSVKGRFTISRDNAKNTVYLQMNSLKPEDTAVYYCAADQYWYFWYDYWGQGTQVTVSS,low polyreactivity
15,QVQLVESGGGLVQAGGSLRLSCAASGLTFRKYAMGWYRPAPGKEREWVAAITRGGSTNYADSVKGRFTISRDNAKNTVYLQMNSLKPEDTAVYYCAAQYTYRFPYPGYATTHDYWGQGTQVTVSS,high polyreactivity
16,QVQLVESGGGLVQAGGSLRLSCAASGRIFYSYTMGWYRQAPGKERELVAGINRSVGSTYYADSVKGRFTISRDNAKNTVYLQMNSLKPEDTAVYYCAAGSRRRSYYTFSSVHGHYYWGQVTQVTVSS,high polyreactivity
